Results on seven molecules are retold here after publication PMC2978359.

The target of series [1] is T1, MBD of MeCP2 (wild type) (human/mouse (residues 76-167 identical), UniProt P51608 76-167). The series is described as follows: EMSA.
Series [2] deals with T1, MBD of MeCP2 (wild type). The series is described as follows: EMSA/T4 endonuclease V. In general terms: Mobility shift assays separate free from complexed probe on a gel.
Series [3] deals with T1, MBD of MeCP2 (wild type). The series is described as follows: EMSA/T4 endonuclease V. This is another data set of the same source.
In series [4] the target is T1, MBD of MeCP2 (wild type). The series is described as follows: EMSA. The source holds these as a separate data set.
The target in series [5] is T1, MBD of MeCP2 (wild type). The series is described as follows: EMSA. The source holds these as a separate data set.

T1 sequence (P51608 76-167): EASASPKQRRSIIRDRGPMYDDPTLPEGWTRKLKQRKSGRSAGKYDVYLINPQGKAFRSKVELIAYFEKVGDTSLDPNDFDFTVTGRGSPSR

B1: TmCG•mCGA duplex (dsDNA)
DNA 1: TAGAAGAATTTCGTTCCAGA
DNA 2: TCTGGAACGAAATTCTTCTA
modifications: 5-methyl-dC at strand 1 pos 12 and strand 2 pos 8
Turning to B1, the equilibrium dissociation constant (Kd) (commonly the free concentration of one partner at which half of the binding sites on the other are occupied at equilibrium, for simple one-to-one binding) with MBD of MeCP2 (wild type) [1] is 35 ± 9 nM; in the series with MBD of MeCP2 (wild type) [2], 75 ± 35 nM.

B2: C=mCG•mCGG CPD duplex (dsDNA)
DNA 1: TAGAAGAATTCCGTTCCAGA
DNA 2: TCTGGAACGGAATTCTTCTA
modifications: 5-methyl-dC at strand 1 pos 12 and strand 2 pos 8; cis-syn CPD between C11 and mC12
Molecule B2 returned a dissociation constant (Kd) with MBD of MeCP2 (wild type) [3] of 11 ± 3 nM.

B3: T=TTmCG•mCGAAA CPD duplex (dsDNA)
DNA 1: TAGAAGAATTTCGTTCCAGA
DNA 2: TCTGGAACGAAATTCTTCTA
modifications: 5-methyl-dC at strand 1 pos 12 and strand 2 pos 8; cis-syn CPD between T9 and T10
For the molecule B3, binding with MBD of MeCP2 (wild type) [3] was put at a Kd of 47 ± 14 nM.

B4: T=TmCG•mCGAA CPD duplex (dsDNA)
DNA 1: TAGAAGAATTTCGTTCCAGA
DNA 2: TCTGGAACGAAATTCTTCTA
modifications: 5-methyl-dC at strand 1 pos 12 and strand 2 pos 8; cis-syn CPD between T10 and T11
Take B4: the dissociation constant (Kd) in the series with MBD of MeCP2 (wild type) [3] was 13 ± 3 nM.

B5: CmCG•mCGG duplex (BDNF promoter III) (dsDNA)
DNA 1: TAGAAGAATTCCGTTCCAGA
DNA 2: TCTGGAACGGAATTCTTCTA
modifications: 5-methyl-dC at strand 1 pos 12 and strand 2 pos 8
As to B5, the dissociation constant Kd with MBD of MeCP2 (wild type) [4] was 12.5 ± 3.5 nM; with MBD of MeCP2 (wild type) [2], 46 ± 26 nM.

B6: CmCG•mCGG in AT tract (dsDNA)
DNA 1: TTATTTTTATCCGTTTTTAATTAT
DNA 2: ATAATTAAAAACGGATAAAAATAA
modifications: 5-methyl-dC at strand 1 pos 12 and strand 2 pos 12
With B6, the dissociation constant Kd with MBD of MeCP2 (wild type) [5] was roughly 15 nM.

B7: CTG•mCGG single-mismatch duplex (dsDNA)
DNA 1: TAGAAGAATTCTGTTCCAGA
DNA 2: TCTGGAACGGAATTCTTCTA
modifications: 5-methyl-dC at strand 2 pos 8
In the series with MBD of MeCP2 (wild type) [1], B7 displayed a dissociation constant Kd of 66 ± 22 nM.
